According to publication PMC3823233 (Nature structural & molecular biology, 2013):

How the values were obtained:
[1] = molecular target: BG505 SOSIP.664 gp140 trimer (HIV-1 clade A, isolate BG505 …, stabilised, glycosylated)
gp120 from strain JRCSF = gp120 from strain JRCSF (HIV-1 (isolate JRCSF), UniProt P20871); assay: ELISA
gp120 from strain JRFL = gp120 from strain JRFL (HIV-1 clade B, isolate JR-FL, UniProt Q75760, strain); assay: ELISA

B1: PGT 135 Fab (Fab, V domains shown)
VH: QLQMQESGPGLVKPSETLSLSCTVSGDSIRGGEWGDKDYHWGWVRHSAGKGLEWIGSIHWRGTTHYKESLRRRVSMSIDTSRNWFSLRLASVTAADTAVYFCARHRHHDVFMLVPIAGWFDVWGPGVQVTVSS
VL: EIVMTQSPDTLSVSPGETVTLSCRASQNINKNLAWYQYKPGQSPRLVIFETYSKIAAFPARFVASGSGTEFTLTINNMQSEDVAVYYCQQYEEWPRTFGQGTKVDIK
stoichiometry N [1]: 3 Fabs per trimer

B2: PGT 135 IgG (antibody, V domains shown)
VH: QLQMQESGPGLVKPSETLSLSCTVSGDSIRGGEWGDKDYHWGWVRHSAGKGLEWIGSIHWRGTTHYKESLRRRVSMSIDTSRNWFSLRLASVTAADTAVYFCARHRHHDVFMLVPIAGWFDVWGPGVQVTVSS
VL: EIVMTQSPDTLSVSPGETVTLSCRASQNINKNLAWYQYKPGQSPRLVIFETYSKIAAFPARFVASGSGTEFTLTINNMQSEDVAVYYCQQYEEWPRTFGQGTKVDIK
binding result (gp120 from strain JRCSF): binds | binding result (gp120 from strain JRFL): binds
